Source: paper PMC8059821

Molecular target: hACE2-NN-Fc 5mut (human) (UniProt Q9BYF1)
Assay: SPR

Work on “soluble monomeric SARS2-RBD (from UniProt P0DTC2) (domain or fragment)” yielded a Kd of 5.45 nM.
